# Laboratory results reported in US20240327530A1 (ICHNOS SCIENCES, published 2024).
# Substitutions are numbered along the chain they refer to. Names and notes keep the numbering of the source.
# T1: Recombinant human IL-1RAP Fc fusion protein (Acrobiosystems, catalog no. ILP-H5256) (human, UniProt Q9NPH3 21-359, limits assumed)
# T1 construct: Bought; not shown: Fc part of the bought fusion protein
# T1 sequence: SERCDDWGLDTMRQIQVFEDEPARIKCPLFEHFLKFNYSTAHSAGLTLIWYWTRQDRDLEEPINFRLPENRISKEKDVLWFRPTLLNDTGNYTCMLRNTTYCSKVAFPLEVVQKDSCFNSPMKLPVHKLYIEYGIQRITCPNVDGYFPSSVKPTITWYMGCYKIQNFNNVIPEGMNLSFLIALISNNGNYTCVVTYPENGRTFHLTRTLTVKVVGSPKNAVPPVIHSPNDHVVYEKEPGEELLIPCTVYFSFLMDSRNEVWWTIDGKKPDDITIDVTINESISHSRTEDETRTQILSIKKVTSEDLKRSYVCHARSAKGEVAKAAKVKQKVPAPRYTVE
# T2: Recombinant cynomolgus monkey IL-1RAP-ECD(S21-E359)-avi-his protein (cynomolgus monkey, UniProt P59822 21-359 (rhesus entry))
# T2 construct: also called cyno IL-1RAP-ECD-Avi-His; recombinant cynomolgus monkey IL-1RAP-avi-his protein
# T2 sequence: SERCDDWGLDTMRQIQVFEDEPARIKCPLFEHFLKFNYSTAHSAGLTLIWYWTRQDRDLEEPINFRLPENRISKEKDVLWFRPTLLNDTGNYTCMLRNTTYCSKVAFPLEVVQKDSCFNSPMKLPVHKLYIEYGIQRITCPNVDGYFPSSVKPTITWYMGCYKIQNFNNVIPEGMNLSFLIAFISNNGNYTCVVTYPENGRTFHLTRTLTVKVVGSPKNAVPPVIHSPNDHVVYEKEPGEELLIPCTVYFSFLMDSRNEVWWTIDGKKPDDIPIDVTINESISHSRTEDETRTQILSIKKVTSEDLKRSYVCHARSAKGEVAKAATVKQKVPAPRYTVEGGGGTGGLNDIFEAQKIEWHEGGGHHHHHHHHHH
# T3: Recombinant mouse IL-1RAP Fc fusion protein (Sino Biologicals, catalog no. 52657-M02H) (mouse, UniProt Q61730 21-350)
# T3 construct: Bought; not shown: Fc part of the bought fusion protein
# T3 sequence: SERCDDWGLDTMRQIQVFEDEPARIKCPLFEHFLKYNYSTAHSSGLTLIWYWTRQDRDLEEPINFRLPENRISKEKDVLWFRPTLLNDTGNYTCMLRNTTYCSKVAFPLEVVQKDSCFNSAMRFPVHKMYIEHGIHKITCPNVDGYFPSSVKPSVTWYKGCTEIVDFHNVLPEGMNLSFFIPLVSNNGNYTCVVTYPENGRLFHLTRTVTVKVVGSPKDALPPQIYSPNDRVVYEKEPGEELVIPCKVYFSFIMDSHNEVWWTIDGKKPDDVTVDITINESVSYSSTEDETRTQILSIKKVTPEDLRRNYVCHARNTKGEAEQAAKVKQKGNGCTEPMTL
# B1: Anti-IL-1RAP-C8-H1A-C4-Fab (Fab, V domains shown)
# VH: QVQLVQSGAEVKKPGSSVKVSCKASGGKLNAYAIQWVRQAPGQGLEWMGYIIPLHGQVDYAQKFQGRVTITADESTSTAYMELSSLRSEDTAVYYCARGQTLYDSGRQFDIWGQGTLVTVSS
# VL: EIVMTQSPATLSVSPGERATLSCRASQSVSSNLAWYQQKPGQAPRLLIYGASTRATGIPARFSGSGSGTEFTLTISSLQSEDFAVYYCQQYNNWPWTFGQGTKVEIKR
# B2: Anti-IL-1RAP-C8-H2B-B5-Fab (Fab, V domains shown)
# VH: B1 VH with K28Q, L29F, N30S, A31E, L54T, H55V, Q57G, V58F
# VL: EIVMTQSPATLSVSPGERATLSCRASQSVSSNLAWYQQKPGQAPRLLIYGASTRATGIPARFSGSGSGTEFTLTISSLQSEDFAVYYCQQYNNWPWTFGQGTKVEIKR
# B3: Anti-IL-1RAP-C8-H1B-A8-Fab (Fab, V domains shown)
# VH: B1 VH with G27E, K28G, L29S, N30Y, A31P
# VL: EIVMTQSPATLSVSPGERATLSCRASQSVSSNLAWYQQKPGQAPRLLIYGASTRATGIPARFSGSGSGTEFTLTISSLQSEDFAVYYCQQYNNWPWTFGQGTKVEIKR
# B4: Anti-IL-1RAP-C8-H1A-G3-Fab (Fab, V domains shown)
# VH: B1 VH with K28P, L29F, N30S, A31D
# VL: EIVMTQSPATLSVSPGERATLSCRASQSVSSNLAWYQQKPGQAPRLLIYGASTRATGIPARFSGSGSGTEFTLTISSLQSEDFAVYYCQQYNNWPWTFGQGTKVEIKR
# B5: Anti-IL-1RAP-C8-H1A-G1-Fab (Fab, V domains shown)
# VH: B1 VH with K28A, L29S, N30R, Q35H
# VL: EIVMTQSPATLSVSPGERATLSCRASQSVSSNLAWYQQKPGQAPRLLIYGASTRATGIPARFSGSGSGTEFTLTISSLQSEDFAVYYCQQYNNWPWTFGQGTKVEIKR
# B6: Anti-IL-1RAP-C8-H1B-B10-Fab (Fab, V domains shown)
# VH: B1 VH with G27V, K28T, L29H, N30T, A31S
# VL: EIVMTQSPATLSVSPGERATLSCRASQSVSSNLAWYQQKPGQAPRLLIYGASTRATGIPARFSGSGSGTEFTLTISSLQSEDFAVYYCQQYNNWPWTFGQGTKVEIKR
# B7: Anti-IL-1RAP-C8-recC-Fab (Fab, V domains shown)
# VH: B1 VH with G27S, K28P, L29A, N30E, A31P, L54S, H55L, Q57G, V58Y
# VL: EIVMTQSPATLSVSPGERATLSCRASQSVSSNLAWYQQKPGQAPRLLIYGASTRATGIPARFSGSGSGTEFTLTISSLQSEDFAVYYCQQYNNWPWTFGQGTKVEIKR
# notes: also called Fab clone anti-IL-1RAP-C8-RecC
# B8: Anti-IL-1RAP-C8-H1B-F3-Fab (Fab, V domains shown)
# VH: B1 VH with K28P, L29H, N30T, Y32H
# VL: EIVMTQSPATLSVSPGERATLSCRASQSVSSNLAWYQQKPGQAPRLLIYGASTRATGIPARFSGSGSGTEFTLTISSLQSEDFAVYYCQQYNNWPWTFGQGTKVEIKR
# B9: Anti-IL-1RAP-C8-H1A-C8-Fab (Fab, V domains shown)
# VH: B1 VH with K28L, L29F, N30S, A31D
# VL: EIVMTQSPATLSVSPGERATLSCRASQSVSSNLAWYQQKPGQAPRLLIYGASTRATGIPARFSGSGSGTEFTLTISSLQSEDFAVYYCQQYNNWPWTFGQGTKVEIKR
# B10: Anti-IL-1RAP-C8-H1A-G11-Fab (Fab, V domains shown)
# VH: B1 VH with K28R, L29F, N30H, A31Q
# VL: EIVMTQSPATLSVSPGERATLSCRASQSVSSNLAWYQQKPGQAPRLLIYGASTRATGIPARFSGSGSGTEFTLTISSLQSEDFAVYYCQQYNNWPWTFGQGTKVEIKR
# B11: Anti-IL-1RAP-C8-recB-Fab (Fab, V domains shown)
# VH: B1 VH with K28P, L29R, N30R, L54S, H55L, Q57G, V58Y
# VL: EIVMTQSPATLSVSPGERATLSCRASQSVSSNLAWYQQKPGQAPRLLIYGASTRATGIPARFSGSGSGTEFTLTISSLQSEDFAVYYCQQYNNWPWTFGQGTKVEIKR
# B12: Anti-IL-1RAP-C8-H1B-H10-Fab (Fab, V domains shown)
# VH: B1 VH with G27S, K28T, L29W, N30E, A31P
# VL: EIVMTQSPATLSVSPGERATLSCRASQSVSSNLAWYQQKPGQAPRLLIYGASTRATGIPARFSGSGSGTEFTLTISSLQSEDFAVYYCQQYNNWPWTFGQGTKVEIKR
# B13: Anti-IL-1RAP-C8-H2B-C10-Fab (Fab, V domains shown)
# VH: B1 VH with K28Q, L29F, N30S, A31E, L54S, H55L, Q57G, V58Y
# VL: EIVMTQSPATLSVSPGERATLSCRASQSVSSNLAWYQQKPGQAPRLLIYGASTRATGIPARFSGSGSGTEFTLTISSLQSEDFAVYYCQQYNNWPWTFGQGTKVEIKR
# notes: also called ISB 880-C8-H2B-C10
# B14: Anti-IL-1RAP-C8-H1B-D8-Fab (Fab, V domains shown)
# VH: B1 VH with G27P, K28S, L29N, N30P, A31V
# VL: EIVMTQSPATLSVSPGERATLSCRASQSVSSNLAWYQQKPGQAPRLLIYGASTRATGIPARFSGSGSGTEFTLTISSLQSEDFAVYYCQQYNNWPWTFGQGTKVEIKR
# B15: Anti-IL-1RAP-C8-H1A-F1-Fab (Fab, V domains shown)
# VH: B1 VH with K28I, L29F, N30S, A31N
# VL: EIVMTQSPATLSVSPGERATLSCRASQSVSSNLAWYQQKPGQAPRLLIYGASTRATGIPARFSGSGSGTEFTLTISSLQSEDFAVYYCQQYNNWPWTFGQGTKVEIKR
# B16: Anti-IL-1RAP-C8-H1A-D8-Fab (Fab, V domains shown)
# VH: B1 VH with K28H, L29F, A31N
# VL: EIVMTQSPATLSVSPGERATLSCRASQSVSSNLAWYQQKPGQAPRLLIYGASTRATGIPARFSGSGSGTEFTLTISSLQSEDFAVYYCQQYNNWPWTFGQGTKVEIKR
# B17: Anti-IL-1RAP-C8-recA-Fab (Fab, V domains shown)
# VH: B1 VH with G27S, K28T, L29W, N30E, A31P, L54S, H55L, Q57G, V58Y
# VL: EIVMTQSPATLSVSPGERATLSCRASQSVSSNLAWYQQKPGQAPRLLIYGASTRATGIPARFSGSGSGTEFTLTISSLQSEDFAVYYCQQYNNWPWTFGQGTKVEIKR
# B18: Anti-IL-1RAP-C8-H1B-B8-Fab (Fab, V domains shown)
# VH: B1 VH with G27S, K28P, L29A, N30E, A31P
# VL: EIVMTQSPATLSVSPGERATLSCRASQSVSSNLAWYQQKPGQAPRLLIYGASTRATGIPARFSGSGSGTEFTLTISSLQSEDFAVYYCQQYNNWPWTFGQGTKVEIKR
# notes: also called ISB 880-C8-H1B-B8
# B19: Anti-IL-1RAP-C8-H1B-E7-Fab (Fab, V domains shown)
# VH: B1 VH with G27S, L29H, N30G, A31N
# VL: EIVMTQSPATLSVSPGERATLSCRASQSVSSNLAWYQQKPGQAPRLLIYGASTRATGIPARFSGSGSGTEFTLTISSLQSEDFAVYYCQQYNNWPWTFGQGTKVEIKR
# B20: Anti-IL-1RAP-C8-H1B-G10-Fab (Fab, V domains shown)
# VH: B1 VH with K28P, L29R, N30R
# VL: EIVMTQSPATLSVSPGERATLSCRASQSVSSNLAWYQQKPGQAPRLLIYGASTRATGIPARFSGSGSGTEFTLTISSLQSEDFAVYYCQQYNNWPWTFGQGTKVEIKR
# B21: Anti-IL-1RAP-UCP02-B11-Fab (Fab, V domains shown)
# VH: QVQLVQSGAEVKKPGSSVKVSCKASGGHFSQFAISWVRQAPGQGLEWMGGIAPGLGSTRYAQKFQGRVTITADESTSTAYMELSSLRSEDTAVYYCARDSIYSAWLAYWGQGTLVTVSS
# VL: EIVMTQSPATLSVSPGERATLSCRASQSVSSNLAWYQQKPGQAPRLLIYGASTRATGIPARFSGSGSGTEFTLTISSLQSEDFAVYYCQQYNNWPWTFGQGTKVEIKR
# B22: Anti-IL-1RAP-UCP03-G4-Fab (Fab, V domains shown)
# VH: QVQLVQSGAEVKKPGSSVKVSCKASGGRFSHYVFSWVRQAPGQGLEWMGGIIPYEGKPFYAQKFQGRVTITADESTSTAYMELSSLRSEDTAVYYCARSDYFYYYFDPWGQGTLVTVSS
# VL: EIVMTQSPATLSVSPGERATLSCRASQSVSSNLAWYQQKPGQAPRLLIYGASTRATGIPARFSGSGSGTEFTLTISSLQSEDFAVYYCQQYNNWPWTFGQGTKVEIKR
# B23: Anti-IL-1RAP-UCP03-G3-Fab (Fab, V domains shown)
# VH: QVQLVQSGAEVKKPGSSVKVSCKASGGPLSGYAFHWVRQAPGQGLEWMGGIIPNFAQTDYAQKFQGRVTITADESTSTAYMELSSLRSEDTAVYYCARFSIYSGWSDVWGQGTLVTVSS
# VL: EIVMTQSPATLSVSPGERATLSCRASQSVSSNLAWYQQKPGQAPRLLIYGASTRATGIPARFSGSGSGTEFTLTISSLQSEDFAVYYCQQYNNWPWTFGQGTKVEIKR
# B24: Anti-IL-1RAP-UCP03-C2-Fab (Fab, V domains shown)
# VH: QVQLVQSGAEVKKPGSSVKVSCKASGDPFKRYAIGWVRQAPGQGLEWMGGIIPTTGEAIYAQKFQGRVTITADESTSTAYMELSSLRSEDTAVYYCARHGTTYAAFDHWGQGTLVTVSS
# VL: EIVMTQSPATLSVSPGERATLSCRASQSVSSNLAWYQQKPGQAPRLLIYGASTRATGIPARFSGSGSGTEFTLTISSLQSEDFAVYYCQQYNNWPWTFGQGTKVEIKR
# Biological target: T1, Recombinant human IL-1RAP Fc fusion …
# Assay: SPR, human IL-1RAP-Fc captured, Fab as analyte (0.08 to 50 nM)
# Method: BR100669) at a flow rate of 30 μl/min for 3 min on fc1 and fc2 (fc1 being used as reference). Dissociation was monitored for 5 min. After each cycle, the surface was regenerated with 60 μl of regeneration solution provided with anti-human IgG Fc capture kit (BIACORE™, GE […]®, catalog no. BR100839) or BiotinCAPture kit (BIACORE™, GE […]®, catalog no. 28920234) respectively. Experimental data were processed using the 1:1 Langmuir kinetic fitting model. Measurements included zero-concentration samples for referencing. Chi², U- and residual values were used to evaluate the quality of a fit between the experimental data and individual binding models. […]
row,Kd,Binder
1,0.995 nM,B1
2,1.37 nM,B2
3,0.522 nM,B3
4,0.623 nM,B4
5,0.424 nM,B5
6,0.553 nM,B6
7,0.038 nM,B7
8,0.427 nM,B8
9,1.24 nM,B9
10,0.742 nM,B10
11,0.052 nM,B11
12,0.209 nM,B12
13,0.589 nM,B13
14,0.476 nM,B14
15,0.832 nM,B15
16,1.51 nM,B16
17,0.051 nM,B17
18,0.373 nM,B18
19,0.831 nM,B19
20,0.313 nM,B20

# Biological target: T2, Recombinant cynomolgus monkey …
# Assay: SPR, biotinylated cyno IL-1RAP-avi-his captured, Fab as analyte, 1:1 fit
# Method: (§1) Surface plasmon resonance (SPR) was used to measure the binding affinities of the Fab fragments for human, cynomolgus monkey and/or mouse IL-1RAP. Affinities were measured on a BIACORE™ T200 instrument (BIACORE™, GE […]®) at 25° C. and analyzed with the BIACORE™ T200 Evaluation Software (v3.1). Measurements were performed on Series S CM5 sensor chips (BIACORE™ T200, BIACORE™, GE […]®, catalog no. BR100530) coupled with anti-human IgG Fc (BIACORE™, GE […]®, catalog no. BR100839) using a commercial amine coupling kit (BIACORE™, GE […]®, catalog no. BR100050) or on Series S BiotinCAPture chips (BIACORE™, GE […]®, catalog no. 28920234). SPR measurements were performed with commercially available recombinant human IL-1RAP Fc fusion protein (Acrobiosystems, catalog no. ILP-H5256) and recombinant mouse IL-1RAP Fc fusion protein (Sino Biologicals, catalog no. 52657-M02H) or with biotinylated recombinant cynomolgus monkey IL-1RAP-avi-his protein produced in-house (SEQ ID NO. 2).
# (§2) The affinities to human, cynomolgus monkey and mouse IL-1RAP were assessed by immobilizing IL-1RAP and using Fab fragments as analyte. Around 100 RU of human or mouse IL-1RAP Fc fusion protein were captured on fc2 of a Series S CM5 sensor chip coupled with anti-human IgG Fc and around 150 RU of biotinylated cynomolgus monkey IL-1RAP protein were captured on fc2 of a Series S BiotinCAPture chip. Fab fragments were injected in single cycle kinetic at different concentrations ranging from 7.8 to 500 nM, in HBS-EP+ buffer (BIACORE™, GE […]®, catalog no. BR100669) at a flow rate of 30 μl/min for 3 min on fc1 and fc2 (fc1 being used as reference). Dissociation was monitored for 5 min. After each cycle, the surface was regenerated with 60 μl of regeneration solution provided with anti-human IgG Fc capture kit (BIACORE™, GE […]®, catalog no. BR100839) or BiotinCAPture kit (BIACORE™, GE […]®, catalog no. 28920234) respectively. Experimental data were processed using the 1:1 Langmuir kinetic fitting model. Measurements included zero-concentration samples for referencing. Chi², U- and residual values were used to evaluate the quality of a fit between the experimental data and individual binding models.
row,Kd,Binder
1,78.7 nM,B21
2,378 nM,B22
3,464 nM,B23
4,486 nM,B24

# Biological target: T3, Recombinant mouse IL-1RAP Fc fusion …
# Assay: SPR, mouse IL-1RAP-Fc captured, Fab as analyte
# Method: as §1, §2
row,binding result,Binder
1,no binding (tested: 7.8 to 500 nM Fab),B21
2,no binding (tested: 7.8 to 500 nM Fab),B22
3,no binding (tested: 7.8 to 500 nM Fab),B23
4,no binding (tested: 7.8 to 500 nM Fab),B24

# Biological target: T1, Recombinant human IL-1RAP Fc fusion …
# Assay: SPR, human IL-1RAP-Fc captured, Fab as analyte, 1:1 fit
# Method: as §1, §2
row,Kd,Binder
1,98.1 nM,B21
2,420 nM,B22
3,279 nM,B23
4,700 nM,B24
